Source: patent US20240309093A1 (MINGHUI PHARMACEUTICAL HANGZHOU, published 2024)

B1: MHPD1-A Fc (Fc fusion)
chain: QVQLVESGGGSVQVGGSLTLSCAASGSDPSIYAMGWFRQAPGKEHEFVAGIGWSAATTYYADSVKGRFGISRDNTKNTVALLMNSLKPEDTAIYYCAADLDHSGFDYWGQGTQVTVSS
notes: C-terminal of VHH directly connected to the N-terminal of the human Fc hinge region; also called nanobody-Fc fusion protein; fusion protein; not shown: human Fc fragment with hinge
B2: MHPD1-A (VHH)
VHH: B1 chain
notes: tag not described; also called VHH; single-domain antibody MHPD1-A

Key:
[1] = target: T1, recombinant mouse PD-1-his protein (mouse, UniProt Q02242 25-167, limits assumed); assay: ELISA; PD-1-his coated 2 µg/mL, anti-human IgG-HRP
T1 construct: not shown: his tag
T1 sequence (looked up): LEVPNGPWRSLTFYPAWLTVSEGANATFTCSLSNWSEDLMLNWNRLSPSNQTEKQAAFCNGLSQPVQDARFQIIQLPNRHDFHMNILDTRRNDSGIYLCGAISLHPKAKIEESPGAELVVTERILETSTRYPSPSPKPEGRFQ
Method: Ninety-six-well Greiner plates were coated with 2 μg/mL of recombinant human PD-1-his protein, recombinant monkey PD-1-his protein and recombinant mouse PD-1-his protein at 4° C. overnight. The next day, the plates were blocked with 1% casein. […] Then, the plates were washed with PBST. Anti-human IgG-HRP (diluted in 1% casein at 1:5000) was added and incubated for 1 hr., and binding detection was performed.

[2] = target: T2, recombinant human PD-1-his protein (human, UniProt Q15116 25-167); assay: SPR (Biacore 8K); PD-1-his amine-coupled to CM5, 1:1 Langmuir fit
T2 construct: also called hPD-1-his; not shown: his tag
Method: About 250RU of recombinant human PD-1-his protein was coupled to a CM5 chip at 25° C. using an amine coupling kit (GE Healthcare, Cat No. BR100050) according to standard amine coupling procedure. […] (five concentrations were detected). The binding time was 120 s, and the dissociation time was 600 s. The curve was fitted with 1:1 Langmuir binding model using Biacore®8K analysis software (BIAevaluation) to determine the kinetic constants thereof, such as, association rate constant, dissociation rate constant, equilibrium dissociation constant, etc.

[3] = target: T3, human PD-1 on HEK293 cells overexpressing human PD-1 (human, UniProt Q15116 25-288); assay: flow cytometry on HEK293 cells overexpressing human PD-1; PE-anti-human IgG
T3 construct: whole, on cells; also called HEK293/hPD1; hPD-1
Method: HEK293 cells overexpressing the human PD-1 were cultured in a DMEM medium containing 10% FBS in a CO₂ incubator (37° C., 5% CO₂). The cells were harvested and washed once with test buffer. Cells were counted and detected for viability. […] The cells were washed with washing buffer, and 100 μL of PE-anti-human IgG was added in accordance with the instruction and incubated in dark at 4° C. for 1 hr. The cells were washed three times with washing buffer, and individual samples were re-suspended in 200 μL of PBS and detected by flow cytometer. The data were analyzed using FCS Express 6 Plus and GraphPad Prism 5 software.

[4] = target: T2, recombinant human PD-1-his protein; assay: ELISA (first round of humanization); PD-1-his coated 2 µg/mL, anti-human IgG Fc-HRP
Method: 96-well ELISA plates were coated with 2 μg/mL of recombinant human PD-1-his antigen protein at 30 μL/well at 4° C. overnight. The plates were washed three times with PBST. 5% PBS-Milk was added and incubated at room temperature for 2 h. The plates were washed three times with PBST. All the nanobody-Fc fusion proteins were subject to 3-fold gradient dilutions with an initial concentration of 10 μg/mL, added into each well at 30 μL/well, and incubated at room temperature for 1 hr. The plates were washed three times with PBST. The secondary antibody Goat-Anti-Human-IgG-Fc-HRP (purchased from Sigma) was diluted at 1:8000, added into each well at 30 μL/well, and incubated at room temperature for 50 min. The plates were washed three times with PBST. TMB (purchased from SurModics) was added into each well at 30 μL/well and developed at room temperature in dark for 1 min to 5 min. 2 M hydrochloric acid was added at 30 μL/well to stop the reaction. The OD450 absorbance value was read by a microplate reader.

[5] = target: T4, recombinant human PD-1 (C-Fc & C-Avi & C-6×His) (human, UniProt Q15116 25-167); assay: competitive ELISA; PD-L1 (C-Fc) coated, 0.5 µg/mL PD-1 (C-Fc & C-Avi & C-6×His), streptavidin-HRP
T4 construct: not shown: C-terminal Fc, Avi tag and 6×His tag
Method: The plates were blocked with 1% casein. […] The plates were washed with PBST between incubations. Horseradish peroxidase-labelled streptavidin (1:10000) was used for detection, and Graphpad Prism software was used to fit the curve and calculate the EC₅₀ value, with the results shown in Table 3.

[6] = target: T3, human PD-1 on HEK293 cells …; assay: competitive flow cytometry on HEK293 cells overexpressing human PD-1; 1.0 µg/mL biotinylated human PD-L1 as competitor, PE-SA
Method: The cells were harvested and washed once with test buffer. […] The data were analyzed using FCS Express 6 Plus and GraphPad Prism 5 software.

[7] = target: T5, recombinant human PD-1 protein (human, UniProt Q15116 25-167, limits assumed); assay: competitive ELISA; PD-1 coated 2 µg/mL, 4 µg/mL PD-L1-Fc as competitor, anti-human IgG-HRP
T5 construct: also called recombinant human PD-1 antigen; human recombinant PD-1
Method: Ninety-six-well plates were coated with recombinant human PD-1 antigen (2 μg/mL) at 4° C. overnight. The plates were blocked with 1% casein. […] The plates were washed with PBST between incubations.

T2 sequence (Q15116 25-167 limits assumed): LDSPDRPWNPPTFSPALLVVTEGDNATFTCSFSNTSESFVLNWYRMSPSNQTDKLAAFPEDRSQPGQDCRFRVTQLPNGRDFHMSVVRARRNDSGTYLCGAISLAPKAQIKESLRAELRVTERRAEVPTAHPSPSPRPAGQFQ
T3 sequence (Q15116 25-288): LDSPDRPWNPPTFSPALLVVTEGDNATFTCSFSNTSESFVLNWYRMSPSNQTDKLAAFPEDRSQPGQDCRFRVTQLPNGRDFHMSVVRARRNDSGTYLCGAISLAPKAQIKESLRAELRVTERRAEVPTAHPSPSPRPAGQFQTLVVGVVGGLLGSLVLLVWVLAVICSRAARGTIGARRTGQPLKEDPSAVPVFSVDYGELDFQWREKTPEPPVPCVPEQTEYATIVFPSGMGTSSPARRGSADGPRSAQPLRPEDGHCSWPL
T5 sequence (Q15116 25-167 limits assumed): as the sequence (Q15116 25-167 limits assumed) above
T4 sequence (Q15116 25-167 limits assumed): as above

Binder | binding result [1] | Kd [2] [nM] | koff [2] [s⁻¹] | kon [2] [M⁻¹ s⁻¹] | EC50 [3] [µg/mL] | EC50 [4] [µg/mL] | EC50 [5] [µg/mL] | EC50 [6] [µg/mL] | EC50 [7] [µg/mL]
B1 | no binding (tested: 5 µg/mL and 1.67 µg/mL) | 0.0425 | 1.95e-05 | 460000 | 0.245 | 0.14 | 0.499 | 0.549 | 
B2 |  |  |  |  |  |  |  |  | 1.71
